The source of these data is US20230057263A1 (CYTOMX THERAPEUTICS, published 2023).

For one assay, the target named is T1, human CD3 epsilon (CD3ε) (human, UniProt P07766 23-207).
T1 construct: Present on donor human T cells as part of the TCR-CD3 complex; also called CD3ε on human T cells
The assay can be described thus: flow cytometry on human T cells. The protocol: In these experiments, human or cynomolgus T cells were incubated with an anti-CD3ε antibody and binding was assessed by flow cytometry.
Briefly, donor T cells from either human or cynomolgus donors were resuspended in FACS buffer containing 0.1% sodium azide and aliquoted in 100 μL volumes. For incubation, 100 μL aliquots of donor T cells were mixed with 50 μL of antibodies diluted in FACS buffer containing 0.1% sodium azide. The cells were then washed twice with FACS buffer containing sodium azide. The bound antibody was detected by incubating cells for 60 minutes with a 1:200 dilution of SAV-RPE (Invitrogen Cat No. SA10044, Lot. 1542820A) or 1:100 dilution of goat-anti-Mouse Fcγ-RPE (Jackson Cat. No. 115-116-071, Lot. 108668, diluted in 0.2% goat serum). The cells were washed, fixed, and analyzed with an Accuri Flow Cytometer.
Treatment with OKT3, SP34-2, and diL2K antibodies were used as positive controls for T cell binding. […] Treatment with OKT3, SP34-2, and diL2K antibodies were used as controls for T cell binding with only SP34-2 binding to cynomolgus T cells, as expected.
(In general: A flow cytometer gives signals particle by particle.)

The target of a further assay is T2, vCD3e #p1 peptide.
T2 construct: also called control peptide #p1
The assay can be described thus: Luminex bead assay, 1 ug/ml antibody [Cont.]. As for the experimental part:
(§1) A set of experiments was performed to map the epitope recognized by the anti-CD3ε antibodies. In these experiments, the anti-CD3ε antibodies were assessed for binding to a collection of overlapping 15-mer peptides spanning amino acids 1-27 of human CD3ε protein using a Luminex bead assay. Control CD3 proteins, control peptides, or the test peptides were immobilized on Luminex beads and incubated with a panel of anti-CD3 antibodies. Binding of the anti-CD3 antibodies to the peptide/protein immobilized on the Luminex bead was detected by R-Phycoerythrin conjugated secondary antibody.
(§2) Recombinant CD3 proteins (human CD3d/e heterodimer and cynomolgus CD3-epsilon (Sinobiological)) and control peptides (#p1, #p2, and #p3) were conjugated to Luminex beads using standard EDC/Sulfo-NHS chemistry. The 15-mer test peptides were synthesized as biotinylated peptides at JPT Peptide Technologies Gmbh and were immobilized on streptavidin-conjugated Luminex beads that were made using standard EDC/Sulfo-NHS chemistry and streptavidin (Invitrogen Cat. No. 434301 lot 1626028A). The Luminex beads with immobilized peptides or reagents were incubated with 50 ul of a panel of anti-CD3 antibodies (1 ug/ml) for one hour at room temperature, washed two times, incubated with mixture of anti-human and anti-mouse IgG-RPE (Jackson Immunoresearch 109-116-097 and Southern Biotech 1030-09, respectively) for 30 mins at RT, washed three times, and analyzed in the Luminex instrument to assess the level of bound anti-CD3 antibodies.

The next assay has as its target T3, B X EMGGITQTPYKVSIS (reading uncertain).
T3 construct: row 7 of the chart; also called biotinylated 15-mer, residues 6-20
T3 peptide: {Biotin-code X}-EMGGITQTPYKVSIS
The assay can be described thus: Luminex bead assay, 1 ug/ml antibody [Cont.]. As for the experimental part:
as §1, §2

A further assay concerns the target T4, B X QDGNEEMAGITQTP (reading uncertain).
T4 construct: row 22 of the chart; 14 residues; also called alanine-scan peptide G8A
T4 peptide: {Biotin-code X}-QDGNEEMAGITQTP
The assay can be described thus: Luminex bead assay, 1 ug/ml antibody [Cont.]. The protocol:
as §1, §2

The next assay addresses T5, B X QDGNEEMGAITQTP (reading uncertain).
T5 construct: row 23 of the chart; 14 residues; also called alanine-scan peptide G9A
T5 peptide: {Biotin-code X}-QDGNEEMGAITQTP
The assay can be described thus: Luminex bead assay, 1 ug/ml antibody [Cont.]. As for the experimental part:
as §1, §2

A further assay addresses T6, B X TPYKVSISGTTVILT (reading uncertain).
T6 construct: row 14 of the chart; also called biotinylated 15-mer, residues 13-27
T6 peptide: {Biotin-code X}-TPYKVSISGTTVILT
The assay can be described thus: Luminex bead assay, 1 ug/ml antibody [Cont.]. The protocol: as §1, §2

For a further assay, the target named is T7, B X NEEMGGITQTPYKVS (reading uncertain).
T7 construct: row 5 of the chart; also called biotinylated 15-mer, residues 4-18
T7 peptide: {Biotin-code X}-NEEMGGITQTPYKVS
The assay can be described thus: Luminex bead assay, 1 ug/ml antibody [Cont.]. The protocol: as §1, §2

A further assay deals with T8, B X QTPYKVSISGTTVIL (reading uncertain).
T8 construct: row 13 of the chart; also called biotinylated 15-mer, residues 12-26
T8 peptide: {Biotin-code X}-QTPYKVSISGTTVIL
The assay can be described thus: Luminex bead assay, 1 ug/ml antibody [Cont.]. The protocol: as §1, §2

Another assay has as its target T9, B X QDGAEEMGGITQTP (reading uncertain).
T9 construct: row 18 of the chart; 14 residues; also called alanine-scan peptide N4A
T9 peptide: {Biotin-code X}-QDGAEEMGGITQTP
The assay can be described thus: Luminex bead assay, 1 ug/ml antibody [Cont.]. The protocol: as §1, §2

A further assay addresses T10, B X GGITQTPYKVSISGT (reading uncertain).
T10 construct: row 9 of the chart; also called biotinylated 15-mer, residues 8-22
T10 peptide: {Biotin-code X}-GGITQTPYKVSISGT
The assay can be described thus: Luminex bead assay, 1 ug/ml antibody [Cont.]. As for the experimental part:
as §1, §2

The target of the next assay is T11, B X DGNEEMGGITQTPYK (reading uncertain).
T11 construct: row 3 of the chart; also called biotinylated 15-mer, residues 2-16
T11 peptide: {Biotin-code X}-DGNEEMGGITQTPYK
The assay can be described thus: Luminex bead assay, 1 ug/ml antibody [Cont.]. The protocol: as §1, §2

Assay [1] concerns the target T12, biotinylated 15-mer peptide corresponding to the CD3ε N-terminus (human, UniProt P07766 22-36, limits assumed, not fully specified; reading uncertain).
T12 construct: domain: N-terminal 15-mer; Immobilised on streptavidin-conjugated Luminex beads; The text says 'peptides' in the plural, so more than one overlapping N-terminal 15-mer may be meant; also called N-terminal 15-mer; biotinylated N-terminal 15-mer
T12 peptide (looked up): {Biotin-linker}-QDGNEEMGGITQTPY
The assay can be described thus: Luminex bead assay, 1 ug/ml antibody [Cont.]. The protocol:
as §1, §2

For a further assay, the target named is T13, B X GNEEMGGITQTPYKV (reading uncertain).
T13 construct: row 4 of the chart; also called biotinylated 15-mer, residues 3-17
T13 peptide: {Biotin-code X}-GNEEMGGITQTPYKV
The assay can be described thus: Luminex bead assay, 1 ug/ml antibody [Cont.]. The protocol:
as §1, §2

Another assay has as its target T14, B X QDGNEEAGGITQTP (reading uncertain).
T14 construct: row 21 of the chart; 14 residues; also called alanine-scan peptide M7A
T14 peptide: {Biotin-code X}-QDGNEEAGGITQTP
The assay can be described thus: Luminex bead assay, 1 ug/ml antibody [Cont.]. As for the experimental part: as §1, §2

For the next assay, the target named is T15, B X QDGNEEMGGIAQTP (reading uncertain).
T15 construct: row 25 of the chart; 14 residues; also called alanine-scan peptide T11A
T15 peptide: {Biotin-code X}-QDGNEEMGGIAQTP
The assay can be described thus: Luminex bead assay, 1 ug/ml antibody [Cont.]. As for the experimental part: as §1, §2

The target in another assay is T16, B X QAGNEEMGGITQTP (reading uncertain).
T16 construct: row 16 of the chart; also called alanine-scan peptide D2A
T16 peptide: {Biotin-code X}-QAGNEEMGGITQTP
The assay can be described thus: Luminex bead assay, 1 ug/ml antibody [Cont.]. As for the experimental part:
as §1, §2

No end group written: not given here. *: point of attachment. Biotin = O=C1N[C@H]2[C@H](CS[C@H]2CCCCC(=O)*)N1; code X = not defined here; linker = not defined here

B1: 6d59 (antibody, V domains shown)
VH: QVHLVESGGGVVQPGRSLRLSCAASGFKFRSYGMHWVRQAPGKGLEWVAIIWYDGSKRYYADSVKGRFTISRDNSKNTLYLQMSSLRAEDTAVYYCARDLITGTTDYWGQGTLVTVSS
VL: DVVMTQSPLSLPVTLGQPASISCRSSRSLVYSDGNTHLIWFQQRPGQSPRRLIYRVSNRVSGVPDRFSGSGSGTDFTLKISRVEAEDVGVYYCLQGAHWPYTFGQGTKLEIKR
notes: also called 6d59.1; VCD3-6d59.1
A word on the EC50 (read off the curve): it is the midpoint of the concentration-response curve. Lower therefore signals higher potency in that assay. Regarding B1, the “EC50 (read off the curve)” value in the assay with human CD3 epsilon (CD3ε) was about 0.06 nM. Moreover, the Luminex signal with vCD3e #p1 peptide came to 20300; with B X EMGGITQTPYKVSIS it was 44.5; in the assay with B X QDGNEEMAGITQTP it was 2510; with B X QDGNEEMGAITQTP, 2660; in the assay with B X TPYKVSISGTTVILT, 31; with B X NEEMGGITQTPYKVS it was 40.5. Further, the Luminex signal is 31.5 with B X QTPYKVSISGTTVIL; 48 with B X QDGAEEMGGITQTP; 29.5 with B X GGITQTPYKVSISGT; 404 with B X DGNEEMGGITQTPYK; 3160 in assay [1]; 44.5 with B X GNEEMGGITQTPYKV. Moreover, the Luminex signal in the assay with B X QDGNEEAGGITQTP was determined as 2580; with B X QDGNEEMGGIAQTP, 2910; with B X QAGNEEMGGITQTP, 45.
